In patent US20240360201A1:

Key:
[1] = target: FcγRIIB-Acro (human) (UniProt P31994); experiment: SPR (Biacore T200), antibody captured on protein A sensor chip, Fc receptor as analyte; analyte range 3200nm-25nm
[2] = target: FcγRIIIA-F176-Sino (human) (UniProt P08637); experiment: SPR Biacore T200; binder captured on protein A chip, Fc receptor as analyte

Kd [1]: 3.33 µM
Kd [2]: 0.563 µM
Substance: PDL1-avelumab (antibody)
